Source: paper PMC10023157, “Peptides that Mimic RS repeats modulate phase separation of SRSF1, revealing a reliance on combined stacking and electrostatic interactions”

Key:
Assay in all cases: not stated; Fluorescence polarization: 100 mM ER4 peptide, 400 mM Arg/Glu, pH 6.5; temperature not stated; three technical replicates
Settings in all cases: protein: recombinant; tags: SUMO (pSMT3) His tag removed by Ulp1
SRSF1 N220C = SRSF1 N220C (human, UniProt Q07955 1-248, C16S;C148S;N220C)
SRSF1 T248C = SRSF1 T248C (human, UniProt Q07955 1-248, C16S;C148S;T248C)
SRSF1 T248C, sequence (Q07955 whole entry C16S/C148S/T248C): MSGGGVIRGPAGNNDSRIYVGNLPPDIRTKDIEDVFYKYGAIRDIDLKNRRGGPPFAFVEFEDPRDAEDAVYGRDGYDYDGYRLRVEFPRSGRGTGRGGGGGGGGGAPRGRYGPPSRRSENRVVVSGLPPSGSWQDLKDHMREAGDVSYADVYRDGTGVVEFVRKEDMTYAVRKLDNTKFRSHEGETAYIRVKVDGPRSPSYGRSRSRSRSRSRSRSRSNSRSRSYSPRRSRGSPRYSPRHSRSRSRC

SRSF1 NoC = SRSF1 NoC (human, UniProt Q07955 1-248, C16S;C148S)
SRSF1 NoC, sequence (Q07955 whole entry C16S/C148S): as the sequence (Q07955 whole entry C16S/C148S/T248C) above, with C248T counted along it

Measured: binding result

SRSF1 N220C, sequence (Q07955 whole entry C16S/C148S/N220C): as the sequence (Q07955 whole entry C16S/C148S/T248C) above, with N220C, C248T counted along it

B1: UCAGAGGA (SRSF1 cognate RNA) (ssRNA)
RNA: UCAGAGGA
binds: SRSF1 N220C | SRSF1 T248C | SRSF1 NoC
